Assay: Phosphatase assay (Malachite Green) of purified UppP
Assay type: biochemical, E. coli
Conditions: 100 μM Fpp as model substrate, 37° C., 0.2% DDM, pH 7.5
Procedure: UppP activity was determined by the Malachite Green assay using Phosphate Colorimetric Assay Kit purchased from BioVision. The enzymatic assay reaction mixture (200 μl) containing 50 mM Tris-HCl, pH 7.5, 150 mM NaCl, 0.2% DDM, 100 μM substrate (Fpp) and appropriately diluted purified UppP was incubated at 37° C. The reaction was quenched by adding 30 μl of Malachite Green Reagent and then the tubes were incubated for 30 min at room temperature. After incubation, the reaction mixture was transferred to 96-well plates and the released phosphate that reacted with Malachite Green was measured at 650 nm according to the reaction time course. The amounts of released phosphate were quantified relative to a phosphate standard curve.
For testing the phosphatase activity of UppP, assays were performed in the presence of various substrates using Malachite Green assay. Since the intended substrate, Upp, was difficult to synthesize and purify (Ghachi et al. Id.), we used farnesyl pyrophosphate (Fpp) as a model substrate. It was previously reported that another E. coli undecaprenyl pyrophosphate phosphatase, PgpB, which has no sequence homology with UppP, catalyzed the dephosphorylation of Upp with a relatively low efficiency compared to diacylglycerol pyrophosphate and farnesyl pyrophosphate lipid substrates. In our activity assay test, Fpp was a suitable substrate for UppP.

B1: UppP: E. coli integral membrane enzyme undecaprenyl pyrophosphate phosphatase purified from the HmBRI/D94N fusion expression system (protein, UniProt P60932 1-273, looked up)
Undecaprenyl-diphosphatase: MSDMHSLLIAAILGVVEGLTEFLPVSSTGHMIIVGHLLGFEGDTAKTFEVVIQLGSILAVVVMFWRRLFGLIGIHFGRPLQHEGESKGRLTLIHILLGMIPAVVLGLLFHDTIKSLFNPINVMYALVVGGLLLIAAECLKPKEPRAPGLDDMTYRQAFMIGCFQCLALWPGFSRSGATISGGMLMGVSRYAASEFSFLLAVPMMMGATALDLYKSWGFLTSGDIPMFAVGFITAFVVALIAIKTFLQLIKRISFIPFAIYRFIVAAAVYVVFF
  time-dependent phosphatase activity (released phosphate): functional protein capable of releasing free phosphate
